Results as given in FireProtDB (doi:10.1006/jmbi.1999.2569).

B1: Ribonuclease, P00648 (parent)
chain: MMKMEGIALKKRLSWISVCLLVLVSAAGMLFSTAAKTETSSHKAHTEAQVINTFDGVADYLQTYHKLPDNYITKSEAQALGWVASKGNLADVAPGKSIGGDIFSNREGKLPGKSGRTWREADINYTSGFRNSDRILYSSDWLIYKTTDHYQTFTKIR

Variants of: B1
Conditions: Bacillus amyloliquefaciens, pH 6.3, Thermal, DSC, MES 50 mM, structure 1BNI, whole UniProt chain shown; for ddG of mutation (higher = less stable): 54.1 °C

| Variant | ddG of mutation (higher = less stable) | Tm | change of melting temperature, mutant - wild type (higher = more stable) |
| --- | --- | --- | --- |
| MMKMEGIALKKRLSWISVCLLVLVSAAGMLFSTAAKTETSSHKAHTEAQVINTFDGVADYLQTYHKLPDNYITKSEAQALGWVASKGNLADVAPGKSIGADIFSNREGKLPGKSGRTWREADINYTSGFRNSDRILYSSDWLIYKTTDHYQTFTKIR | 3.4 kcal/mol | 45.5 °C | -8.6 °C |
| MMKMEGIALKKRLSWISVCLLVLVSAAGMLFSTAAKTETSSHKAHTEAQVINTFDGVADYLQTYHKLPDNYITKSEAQALGWVASKGNLADVAPGKSIGVDIFSNREGKLPGKSGRTWREADINYTSGFRNSDRILYSSDWLIYKTTDHYQTFTKIR | 7.8 kcal/mol | 34.5 °C | -19.6 °C |
| MMKMEGIALKKRLSWISVCLLVLVSAAGMLFSTAAKTETSSHKAHTEAQVINTFDGVADYLQTYHKLPDNYITKSEAQALGWVASKGNLADVAPGKSIVGDIFSNREGKLPGKSGRTWREADINYTSGFRNSDRILYSSDWLIYKTTDHYQTFTKIR | 8.4 kcal/mol | 33 °C | -21.1 °C |
| MMKMEGIALKKRLSWISVCLLVLVSAAGMLFSTAAKTETSSHKAHTEAQVINTFDGVADYLQTYHKLPDNYITKSEAQALGWVASKGNLADVAPGKSIAGDIFSNREGKLPGKSGRTWREADINYTSGFRNSDRILYSSDWLIYKTTDHYQTFTKIR | 5.3 kcal/mol |  |  |
